Measurements: patent publication US20170212130A1 (ROCKEFELLER UNIVERSITY, published 2017)
Where two headings read alike, the source gives them in different places.

Key:
[1] = target: T1, DsRed (Discosoma sp., UniProt Q9U6Y8 1-225); assay: bead binding: nanobody-Dynabeads + fluorescent protein, eluate on SDS-PAGE
T1 construct: Recombinant fluorescent protein; construct not described; also called standard DsRed; DsRed from Discosoma (Ds)

[2] = target: T2, GFP-His6 (eGFP) (Aequorea victoria, UniProt P42212 2-238 = GFP); assay: as above
T2 construct: SPR and bead assays speak only of recombinant GFP or eGFP; also called recombinant GFP; A. victoria (Av) GFP

[3] = target: T3, mCherry (Discosoma); assay: label under gel lane; legend: in vitro Kd for mCherry by SPR
T3 construct: Immunogen is mCherry-His6; SPR says recombinant mCherry; also called recombinant mCherry-His6; Discosoma mCherry

[4] = target: T3, mCherry; assay: SPR, mCherry immobilized, Langmuir fit; unit inferred
[5] = target: T3, mCherry; assay: SPR, mCherry immobilized
[6] = target: T2, GFP-His6 (eGFP); assay: SPR, GFP immobilized, Langmuir fit; unit inferred
[7] = target: T1, DsRed; assay: bead binding: nanobody-Dynabeads + fluorescent protein, eluate on SDS-PAGE; remark: listed apart in the source
[8] = target: T2, GFP-His6 (eGFP); assay: SPR, GFP immobilized
[9] = target: T2, GFP-His6 (eGFP); assay: SPR, GFP immobilized, Langmuir fit; no unit printed [continued]
[10] = target: T2, GFP-His6 (eGFP); assay: as above; remark: listed apart in the source
[11] = target: T2, GFP-His6 (eGFP); assay: bead binding assay (footnote 1)
[12] = target: T2, GFP-His6 (eGFP); assay: label under gel lane; legend: in vitro Kd for GFP by SPR

T1 sequence (Q9U6Y8 whole entry): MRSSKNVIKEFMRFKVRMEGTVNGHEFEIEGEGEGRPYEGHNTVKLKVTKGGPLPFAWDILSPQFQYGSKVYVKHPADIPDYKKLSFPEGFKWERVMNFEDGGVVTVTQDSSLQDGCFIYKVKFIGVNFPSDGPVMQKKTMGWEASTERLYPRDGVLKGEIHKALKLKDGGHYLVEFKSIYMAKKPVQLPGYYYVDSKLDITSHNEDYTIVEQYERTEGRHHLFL

B1: LaM-1 (VHH)
VHH: QVQLVESGGGLVQAGDSLRLSCAASGRTFENYAMGWFRQAPGKEREFVGAVSWGGGRTYYADNVKGRFTISRDNAKKNTVYLQMNSLKPEDTAVYYCAAKSVLTIATMRVPDEYNYWGQGTQVTVS
[1]
  binding result: no binding
[2]
  binding result: no binding
[3]
  Kd: 22 nM
[4]
  Kd: 22 nM
[5]
  Kd: 22 nM

B2: LaG-17 (VHH)
VHH: DVQLVESGGGLVQAGGSLRLSCAASGRTISMAAMSWFRQAPGKEREFVAGISRSAGSAVHADSVKGRFTISRDNTKNTLYLQMNSLKAEDTAVYYCAVRTSGFFGSIPRTGTAFDYWGQGTQVTVS
[6]
  Kd: 48 nM
[7]
  binding result: no binding

B3: LaG-3 (VHH)
VHH: QVQLVESGGGLVQAGGSLRVSCAASGRTYSDYAMGWFRQAPGKERDFVAGISGSGGDTYYADSVKGRFTISRDNAKNTMYLQMNSLKPEDTAVYFCAARTGTVLFTSRVDYRYWGQGTQVTV
[8]
  Kd: 25 nM
[6]
  Kd: 25 nM
[7]
  binding result: no binding

B4: LaG16-LaG2 (3xFLAG) (other)
single-chain fusion of two VHH (part 1 of 2): MAQVQLVESGGRLVQAGDSLRLSCAASGRTFSTSAMAWFRQAPGREREFVAAITWTVGNTILGDSVKGRFTISRDRAKNTVDLQMDNLEPEDTAVYYCSARSRGYVLSVLRSVDSYDYWGQGTQVTVS
single-chain fusion of two VHH (part 2 of 2): MAQVQLVESGGGLVQAGGSLRLSCAASGRTFSNYAMGWFRQAPGKEREFVAAISWTGVSTYYADSVKGRFTISRDNDKNTVYVQMNSLIPEDTAIYYCAAVRARSFSDTYSRVNEYDYWGQGTQVTV
notes: Member of the group m24; also called LaG16-LaG2 3xFLAG Dimer
[9]
  Kd: 0.27 nM
[8]
  Kd: 0.268 nM

B5: LaG-6 (VHH)
VHH: QVQLVESGGGLVQAGGSLRLSCAASGRTFSTSAMAWFRQAPGKEREFAAGITWISSSTYYTDSVKGRFTISRDNAKNTVYLQMNSLKPEDTAVYYCAAKSEGYFGFPRVENEYPYWGQGTQVTV
[8]
  Kd: 310 nM
[6]
  Kd: 310 nM

B6: LaM-6 (VHH)
VHH: QVQLVESGGGLVQAGGSLRLSCVASGSAPSFFAMAWYRQSPGNERELVAALSSLGSTNYADSVKGRFTISMDNAKNTVYLQMNNVNAEDTAVYYCAAGDFHSCYARKSCDYWGQGTQVTVS
[1]
  binding result: no binding
[2]
  binding result: no binding
[3]
  Kd: 0.26 nM
[4]
  Kd: 0.26 nM
[5]
  Kd: 0.26 nM

B7: LaG-27 (VHH)
VHH: DVQLVESGGGLVQAGGSLRLSCTASGLTISTYNIGWFRQAPGKEREFVGIIIRNGDTTYYADSVKGRFTISRDNAKNTVYLQMNSVKPADAAVYSCGATVRAGAAAEQYNSYIFRGQGTQVTV
[8]
  Kd: 9.5 nM
[10]
  Kd: 9.5 nM
[7]
  binding result: no binding

B8: LaG-35 (VHH)
VHH: DVQLVESGGGLVQAGGSLRLSCTVSGRTFSNYAMGWFRQAPGKEREFVAGISWTGGHTLYTDSVKGRFTISRDNAKNTVYLQMNSLKPEDTALYYCAADRAADFFAQRDEYDYWGQGTQVTVS
[11]
  Kd: 23.5 nM
[12]
  Kd: 24 nM

B9: LaG-16 (VHH)
VHH: QVQLVESGGRLVQAGDSLRLSCAASGRTFSTSAMAWFRQAPGREREFVAAITWTVGNTILGDSVKGRFTISRDRAKNTVDLQMDNLEPEDTAVYYCSARSRGYVLSVLRSVDSYDYWGQGTQVTVS
modifications: Conjugated to Alexa Fluor 568 (succinimidyl ester, on amines) in the microscopy result. The letters are unchanged.
notes: Conjugated to Alexa Fluor 568 for microscopy
[8]
  Kd: 0.7 nM
[6]
  Kd: 0.69 nM
[7]
  binding result: no binding

B10: LaG-37 (VHH)
VHH: QVQFVESGGGTVQDGDFLRLSCTASGDTFSNYHAGWFRQPPGREREFVAAISWTGEGTLYADSVKGQFTISRDNAKNAMYLQMNRLKPEDTAVYYCAAARSVGFTWRSSKSNDYAYWGQGTQVTV
[8]
  Kd: 24 nM
[12]
  Kd: 25 nM
[10]
  Kd: 24 nM

B11: LaG-19 (VHH)
VHH: QVQLVESGGGLVQAGGSLRLSCAASGPTGAMAWFRQAPGKEREFVGGISRSGTDTYYVDSVKGRFTIDRDNAKNTVYLQMNSLKPEDTAVYYCAARRSQILFTSRTDYEFWGQGTQVTVS
[11]
  Kd: 24.6 nM
[7]
  binding result: no binding

B12: LaM-3 (VHH)
VHH: QVQLVQSGGGLVQAGGSLRLSCAASGRTFSDIAVGWFRQTPGKEREFVAAISWSGLIINYGDSVEDRFTISRDNAKSAVYLQMNSLKPEDTAVYYCAARIGMNYYYAREIEYPYWGQGTQVTVS
[2]
  binding result: no binding
[3]
  Kd: 1.9 nM
[4]
  Kd: 1.9 nM
[5]
  Kd: 1.9 nM

B13: LaG-21 (VHH)
VHH: QVQLVESGGGLVQAGGSLRLSCAASGPTGAMAWFRQAPGMEREFVGGISGSETDTYYADFVKGRLTVDRDNVKNTVDLQMNSLKPEDTAVYYCAARRRVTLFTSRADYDFWGQGTQVTVS
[8]
  Kd: 7 nM
[7]
  binding result: no binding

B14: LaG-10 (VHH)
VHH: QVQLVESGGGLVQAGDSLQLSCAFSGGTFSTYAMGWFRQAPGKEREFVGGISRSGATTNYEDSVKGRFTISKDNTKNTVYLQLNSLKPEDTAVYYCAARNNILPVTTIDKYEYWGQGTQVTV
[8]
  Kd: 97 nM
[6]
  Kd: 97 nM

B15: LaM-8 (VHH)
VHH: QVQLVESGGGLVQAGGSLRLSCAVSGRPFSEYNLGWFRQAPGKEREFVARIRSSGTTVYTDSVKGRFSASRDNAKNMGYLQLNSLEPEDTAVYYCAMSRVDTDSPAFYDYWGQGTQVTVST
[1]
  binding result: no binding
[2]
  binding result: no binding
[3]
  Kd: 63 nM
[4]
  Kd: 63 nM
[5]
  Kd: 63 nM

B16: LaG41-LaG2 (G4S) (bispecific antibody)
single-chain fusion of two VHH: MADVQLVESGGGLVQAGGSLRLSCAASGPTGAMAWFRQAPGKEREFVGGISGSETDTYYVDSVKGRFTVDRDNVKNTVYLQMNSLKPEDTAVYYCAARRRITLFTSRTDYDFWGRGTQVTVGGGGSGGGGSGGGGSMAQVQLVESGGGLVQAGGSLRLSCAASGRTFSNYAMGWFRQAPGKEREFVAAISWTGVSTYYADSVKGRFTISRDNDKNTVYVQMNSLIPEDTAIYYCAAVRARSFSDTYSRVNEYDYWGQGTQVTV
notes: Member of the group m24; also called LaG41-LaG2 G4S Dimer
[9]
  Kd: 0.15 nM
[8]
  Kd: 0.15 nM

B17: LaG-14 (VHH)
VHH: QVQLVESGGGLVQAGGSLRLSCAASGRTYSISAMGWFRQAPGKEREFVAGISRSGGTTYYADPVKGRFTISRDNAKNTVYLQMNSLKPEDTAVYYCAARARGWTTFPAREIEYDYWGQGTQVTV
[8]
  Kd: 1.9 nM
[6]
  Kd: 1.9 nM
[7]
  binding result: no binding

B18: LaG-43 (VHH)
VHH: DVQLVESGGGLVQPGGSLRLSCEASGGAFSTVAMGWFRQAPGKEREFVGAITWTAGSTYYADSAKGRFTISRDNAKNTVHLQMNSLKPEDTAVYYCAQRVRGFFGPLRTTPSWYEYWGQGTQVTVS
[9]
  Kd: 11 nM
[8]
  Kd: 11 nM
[12]
  Kd: 13 nM

B19: LaG-30 (VHH)
VHH: QVQLVESGGGLVQAGGSLRLSCAASGRTFSTSAMGWFRQAPGREREFVAAITWTVGNTIYGDSMKGRFTISRDRTKNTVDLQMDSLKPEDTAVYYCTARSRGFVLSDLRSVDSFDYKGQGTQVTVS
[8]
  Kd: 0.5 nM
[10]
  Kd: 0.5 nM
[7]
  binding result: no binding

B20: LaG-29 (VHH)
VHH: QVQLVESGGGLVQAGAALRLSCAASGGTFSFYNMGWFRQAPGKEREFVVSISRSGGGTAYADSVKGRFTISRDNAKNTAYLQMNSLKPEDTAVYYCAAGLRDWGREGEPHYWGQGTQVTVS
[8]
  Kd: 110 nM
[10]
  Kd: 110 nM

B21: LaG-26 (VHH)
VHH: QVQLVESGGGLVQAGASMRLSCAASGITFSLYHWVWFRQAAGREHEFVAGIIRSGGETLSADSVKDRFIISRDDAKNTLYLQMNMLQPEDTATYYCAATHRADWYSSAFREYIFRGQGTQVTVS
[8]
  Kd: 2.6 nM
[10]
  Kd: 2.6 nM
[7]
  binding result: no binding

B22: LaG-42 (VHH)
VHH: DVQLVESGGGLVQAGDSLRLSCAASGPTGAMAWFHQGLGKEREFVGGISPSGDNIYYADSVKGRFTIDRDNAKNTVSLQMNSLKPEDMGVYYCAARRRVTLFTSRTDYEFWGRGTQVTVS
[8]
  Kd: 600 nM

B23: LaG-11 (VHH)
VHH: DVQLVESGGRSVRAGDSLRLSCLASGGTFSLYAMGWFRQAPGKEREFVAAVTWSGGSTYYTDSVKGRFSISRDNAKNTVYLQMNSLKPEDTAVYYCAVRTSGFFGSIPVTERAFDYWGQGTQVTVS
[11]
  Kd: 22900 nM
[12]
  Kd: 22900 nM
